Columns and labels:
[1] = molecular target: SARS-CoV-2 spike glycoprotein S1 subunit (SARS-CoV-2, UniProt P0DTC2 14-685); experiment: BLI
[2] = molecular target: SARS-CoV-2 spike glycoprotein receptor-binding domain (SARS-CoV-2, UniProt P0DTC2 319-541); experiment: BLI

B1: angiotensin-converting enzyme 2 (ACE2) protein, purified (receptor)
chain: QSTIEEQAKTFLDKFNHEAEDLFYQSSLASWNYNTNITEENVQNMNNAGEKWSAFLKEQSTLAQMYPLQEIQNLTVKLQLQALQQNGSSVLSEDKSKRLNTILNTMSTIYSTGKVCNPNNPQECLLLDPGLNEIMEKSLDYNERLWAWEGWRSEVGKQLRPLYEEYVVLKNEMARANHYKDYGDYWRGNYEVNGVDGYDYNRDQLIEDVERTFEEIKPLYEHLHAYVRAKLMNAYPSYISPTGCLPAHLLGDMWGRFWTNLYSLTVPFGQKPNIDVTDAMVNQAWNAQRIFKEAEKFFVSVGLPNMTQGFWENSMLTDPGNVQKVVCHPTAWDLGKGDFRIIMCTKVTMDDFLTAHHEMGHIQYDMAYAAQPFLLRNGANEGFHEAVGEIMSLSAATPKHLKSIGLLSPDFQEDNETEINFLLKQALTIVGTLPFTYMLEKWRWMVFKGEIPKDQWMKKWWEMKREIVGVVEPVPHDETYCDPASLFHVSNDYSFIRYYTRTLYQFQFQEALCQAAKHEGPLHKCDISNSTEAGQKLLNMLKLGKSEPWTLALENVVGAKNMNVRPLLNYFEPLFTWLKDQNKNSFVGWSTDWSPYADQSIKVRISLKSALGDKAYEWNDNEMYLFRSSVAYAMRTYFLEIKHQTILFGEEDVRVADLKPRISFNFYVTAPKNVSDIIPRTEVEEAIRISRSRINDAFRLNDNSLEFLGIQTTLAPPYQSPVT
Kd [1]: 146 nM
Kd [2]: 149 nM

Reference: publication PMC7486399 (2020)
